These results are taken from US6127119, “Nucleic acid ligands of tissue target” (NeXstar Pharmaceuticals, Inc.).

Numbering of substitutions follows the chain as printed.

Sequences and labels used below:
B1: FC69 (ssRNA)
RNA: GGGAGAUAAGAAUAAACGCUCAAACAAAUGUGCGCCCUUGGACGAAGUUAACUCGGACGGUUCUUCGACAGGAGGCUCACAACAGGC
modifications: 2'-F pyrimidines
B2: FCN31 (ssRNA)
RNA: GGGAGAUAAGAAUAAACGCUCAAUCUGUUGGUUCAAAGACUUGCUAAGGGGUCGAAGCACCCUUUCGACAGGAGGCUCACAACAGGC
modifications: 2'-F pyrimidines
B3: FCN24 (ssRNA)
RNA: GGGAGAUAAGAAUAAACGCUCAAAUGAGUAGACCGAGGAAGCACCCGGCUCUCAAAUGAGUGAUUCGACAGGAGGCUCACAACAGGC
modifications: 2'-F pyrimidines
B4: FCN64 (ssRNA)
RNA: B3 RNA with G60C
modifications: 2'-F pyrimidines
B5: FCN48 (ssRNA)
RNA: GGGAGAUAAGAAUAAACGCUCAAGAUAUACUAACUUUGUUUGAAAGCCAAAAGUAUUAAUGCGUUCGACAGGAGGCUCACAACAGGC
modifications: 2'-F pyrimidines
B6: FCN50 (ssRNA)
RNA: GGGAGAUAAGAAUAAACGCUCAAGAAUGGAGCCAGGAAAGACAGCGAUGUCUCGGACGAUGAGUUCGACAGGAGGCUCACAACAGGC
modifications: 2'-F pyrimidines
B7: FCN36 (ssRNA)
RNA: GGGAGAUAAGAAUAAACGCUCAAAGCAGAUGGUGCUGAGGUAUCAUGAAGACGCUGACGCUUAUUCGACAGGAGGCUCACAACAGGC
modifications: 2'-F pyrimidines
B8: FCN59 (ssRNA)
RNA: GGGAGAUAAGAAUAAACGCUCAAAUGAUGCUCCUGAAGUAAUCACCAGGACAUCCUCGGCAUUUCGACAGGAGGCUCACAACAGGC
modifications: 2'-F pyrimidines
B9: FCN52 (ssRNA)
RNA: GGGAGAUAAGAAUAAACGCUCAAAGCCGAGCUAAUCCCGAAAGUGACCCGGAACGACGCGGCAUUCGACAGGAGGCUCACAACAGGC
modifications: 2'-F pyrimidines
B10: FCN9 (ssRNA)
RNA: GGGAGAUAAGAAUAAACGCUCAACGUUGAAAUCGCUCCUCAGUGUGAGUUGAAUCAGCUGACCUUCGACAGGAGGCUCACAACAGGC
modifications: 2'-F pyrimidines
B11: FC9 (ssRNA)
RNA: GGGAGAUAAGAAUAAACGCUCAAGCAAUCUCGGACUAGACCAACGACCUUCGUUUGACGCUCAUUCGACAGGAGGCUCACAACAGGC
modifications: 2'-F pyrimidines
B12: FCN22 (ssRNA)
RNA: GGGAGAUAAGAAUAAACGCUCAAGUGAGAAAUGUCGGGGGCGAUGACUUGGACGGUCCACCGUUCGACAGGAGGCUCACAACAGGC
modifications: 2'-F pyrimidines
B13: FCN12 (ssRNA)
RNA: GGGAGAUAAGAAUAAACGCUCAAAGAGAGGAACUGCGAUUCAGACCAAAACGGAAAUGGCUGUUUCGACAGGAGGCUCACAACAGGC
modifications: 2'-F pyrimidines
B14: FCN54 (ssRNA)
RNA: GGGAGAUAAGAAUAAACGCUCAACUGGGCUCAUCCGGCGAAUGAUGCAAGGAAGAUUUCACAUUUCGACAGGAGGCUCACAACAGGC
modifications: 2'-F pyrimidines
B15: FCN13 (ssRNA)
RNA: GGGAGAUAAGAAUAAACGCUCAACGUGAUGACAGCUCGGACGGCUCAUUGCGCGGAGUAGCUAUUCGACAGGAGGCUCACAACAGGC
modifications: 2'-F pyrimidines
B16: FCN56 (ssRNA)
RNA: GGGAGAUAAGAAUAAACGCUCAACGGCUCGAUGCUAGCUGGGACGGCUCAUUGAGACUGGUUGUUCGACAGGAGGCUCACAACAGGC
modifications: 2'-F pyrimidines
B17: FC34 (ssRNA)
RNA: GGGAGAUAAGAAUAAACGCUCAAAAGGCCGAACAACGAAGUUUGAUUCAGGUACUCAGCGUUCUUCGACAGGAGGCUCACAACAGGC
modifications: 2'-F pyrimidines
B18: FCN21 (ssRNA)
RNA: GGGAGAUAAGAAUAAACGCUCAAAGUUUGGAUUCGGCAGGUGCUGAGACUUUGAUAGCCACUAUUCGACAGGAGGCUCACAACAGGC
modifications: 2'-F pyrimidines
B19: FCN25 (ssRNA)
RNA: B5 RNA with G38C
modifications: 2'-F pyrimidines
B20: FCN18 (ssRNA)
RNA: GGGAGAUAAGAAUAAACGCUCAAAUGAACGACCGCGGGCAGUCGCGUUCAAAUGAGUGGUUUUUUCGACAGGAGGCUCACAACAGGC
modifications: 2'-F pyrimidines
B21: FCN27 (ssRNA)
RNA: GGGAGAUAAGAAUAAACGCUCAAAAAGUCGUGUGCGAGAGGCUCAGAUUUAAUGCGGAGGAUUCGACAGGAGGCUCACAACAGGC
modifications: 2'-F pyrimidines
B22: FCN69 (ssRNA)
RNA: GGGAGAUAAGAAUAAACGCUCAAGAUUGACACGCACUCCAAUGGCUCUGAAGUGUUCGUGUGCUUCGACAGGAGGCUCACAACAGGC
modifications: 2'-F pyrimidines
B23: FCN49 (ssRNA)
RNA: B6 RNA with G35A
modifications: 2'-F pyrimidines
B24: FCN58 (ssRNA)
RNA: B6 RNA with A25G, G35A
modifications: 2'-F pyrimidines
B25: FCN6 (ssRNA)
RNA: GGGAGAUAAGAAUAAACGCUCAACAACGAUUAUCUUUUCGGCCGUGAAACCCAAACUGACGCCUUCGACAGGAGGCUCACAACAGGC
modifications: 2'-F pyrimidines
B26: FCN57 (ssRNA)
RNA: B11 RNA with G24A, C41U, C62U
modifications: 2'-F pyrimidines
B27: FCN61 (ssRNA)
RNA: B11 RNA with U36G, C41U, C62U
modifications: 2'-F pyrimidines
B28: FCN29 (ssRNA)
RNA: GGGAGAUAAGAAUAAACGCUCAACUGUGCAGUAACUGCGGAUGAGACCAACCGGAUGGCUCAACUUCGACAGGAGGCUCACAACAGGC
modifications: 2'-F pyrimidines
B29: FCN26 (ssRNA)
RNA: GGGAGAUAAGAAUAAACGCUCAAUCCAAGGACCAAACGGGUGUUCGGCAGUGGACUUUAGCAAUUCGACAGGAGGCUCACAACAGGC
modifications: 2'-F pyrimidines
B30: FC14 (ssRNA)
RNA: GGGAGAUAAGAAUAAACGCUCAAGUGUUGGAGCUCUUGAUUGGAAAAGUAGAACAAAUCGAAAUUCGACAGGAGGCUCACAACAGGC
modifications: 2'-F pyrimidines
B31: FC30 (ssRNA)
RNA: B30 RNA with G48U, A53G
modifications: 2'-F pyrimidines
B32: FC70 (ssRNA)
RNA: B30 RNA with A53G, U58A
modifications: 2'-F pyrimidines
B33: FC74 (ssRNA)
RNA: B30 RNA with A53G
modifications: 2'-F pyrimidines
B34: FC53 (ssRNA)
RNA: GGGAGAUAAGAAUAAACGCUCAAGCGGGGAGCUCCUCGAGAAACUGAGUUCAACUUCCCAGGUUUCGACAGGAGGCUCACAACAGGC
modifications: 2'-F pyrimidines
B35: FCN65 (ssRNA)
RNA: GGGAGAUAAGAAUAAACGCUCAAAGCGCUAGAUGGACGAGAGACUUUUAAGUAGCAAGCGGUAUUCGACAGGAGGCUCACAACAGGC
modifications: 2'-F pyrimidines
B36: FCN28 (ssRNA)
RNA: GGGAGAUAAGAAUAAACGCUCAAUGGGCUACAUGUGAGUACACCAGCGUGAGAGUUCUUAGGUUCGACAGGAGGCUCACAACAGGC
modifications: 2'-F pyrimidines
B37: FC10 (ssRNA)
RNA: GGGAGAUAAGAAUAAACGCUCAACAGACUCAGAGCGCCGUGAGCUUCUGAAGCAAUCGCAGGUUUCGACAGGAGGCUCACAACAGGC
modifications: 2'-F pyrimidines

As a reminder, the Kd is the equilibrium constant for the complex coming apart.

Chain of Fibrin (human plasma clot) (P02671 other isoform, or with tags, fused parts or gaps, chain 1 of 3): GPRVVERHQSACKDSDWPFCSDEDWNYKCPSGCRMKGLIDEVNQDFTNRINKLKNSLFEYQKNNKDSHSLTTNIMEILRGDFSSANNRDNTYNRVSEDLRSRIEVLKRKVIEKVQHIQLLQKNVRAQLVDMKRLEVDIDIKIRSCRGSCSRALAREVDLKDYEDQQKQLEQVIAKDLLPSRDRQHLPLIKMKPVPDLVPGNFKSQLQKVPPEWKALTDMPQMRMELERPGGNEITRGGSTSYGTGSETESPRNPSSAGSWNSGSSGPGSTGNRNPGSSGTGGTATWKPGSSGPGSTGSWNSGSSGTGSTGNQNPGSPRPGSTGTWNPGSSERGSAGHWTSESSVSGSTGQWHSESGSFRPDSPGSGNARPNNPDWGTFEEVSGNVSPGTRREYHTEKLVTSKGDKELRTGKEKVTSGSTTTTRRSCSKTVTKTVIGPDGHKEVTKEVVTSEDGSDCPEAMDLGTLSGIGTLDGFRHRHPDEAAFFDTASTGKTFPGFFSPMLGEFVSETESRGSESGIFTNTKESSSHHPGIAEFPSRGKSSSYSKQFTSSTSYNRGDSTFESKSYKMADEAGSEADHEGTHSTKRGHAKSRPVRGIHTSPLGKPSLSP
Chain of Fibrin (human plasma clot) (P02675 45-491, chain 2 of 3): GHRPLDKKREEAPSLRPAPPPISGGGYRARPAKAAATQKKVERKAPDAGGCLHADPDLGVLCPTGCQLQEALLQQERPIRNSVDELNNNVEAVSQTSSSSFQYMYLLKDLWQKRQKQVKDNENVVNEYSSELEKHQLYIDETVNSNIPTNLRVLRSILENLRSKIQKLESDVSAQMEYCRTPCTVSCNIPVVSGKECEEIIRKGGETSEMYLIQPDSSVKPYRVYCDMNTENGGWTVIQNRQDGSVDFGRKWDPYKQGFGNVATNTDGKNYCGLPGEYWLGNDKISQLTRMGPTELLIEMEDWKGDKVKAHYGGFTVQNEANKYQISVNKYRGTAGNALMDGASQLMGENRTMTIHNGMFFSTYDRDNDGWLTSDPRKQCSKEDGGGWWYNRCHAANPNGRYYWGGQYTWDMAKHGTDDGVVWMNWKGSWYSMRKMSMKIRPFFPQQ
Chain of Fibrin (human plasma clot) (P02679 other isoform, or with tags, fused parts or gaps, chain 3 of 3): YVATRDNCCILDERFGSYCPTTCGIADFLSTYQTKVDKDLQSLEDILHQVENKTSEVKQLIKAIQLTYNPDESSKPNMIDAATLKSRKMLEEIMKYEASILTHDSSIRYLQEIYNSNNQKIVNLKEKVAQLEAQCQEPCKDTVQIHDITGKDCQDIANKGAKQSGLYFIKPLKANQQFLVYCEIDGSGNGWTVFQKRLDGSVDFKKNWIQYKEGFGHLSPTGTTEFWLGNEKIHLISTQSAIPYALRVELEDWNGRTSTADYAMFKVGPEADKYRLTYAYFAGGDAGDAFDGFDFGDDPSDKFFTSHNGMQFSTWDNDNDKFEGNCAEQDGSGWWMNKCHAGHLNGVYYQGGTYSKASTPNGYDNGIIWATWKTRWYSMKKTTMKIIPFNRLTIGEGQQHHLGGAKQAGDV

One data set addresses Fibrin (human plasma clot) (Homo sapiens, UniProt P02671-2;P02675;P02679-2 P02671-2:36-644,P02675:45-491,P02679-2:27-437). Briefly: competition; homogenized plasma clot, Scatchard high-affinity component. As to conditions: tags: clot from recalcified plasma, complex target; chain copies: 2. As to the method:
The two best binders in the PE model which had the lowest affinity for fibrinogen were pursued. Both of these clones resided in Motif II. Clone 69 (SEQ ID NO: 55) was analyzed for binding in vitro homogenized clot. By adding a fixed amount of radiolabeled clone 69 (2 nM) to a fixed amount of clot (200 μliters plasma equivalent) with increasing amount of non-radiolabeled ligand, binding could be quantitated. Analyzing data in a Scatchard format yield a two-component curve with high and low affinity binding components. […] These sites were saturable. […] As such it appears that the binding of a specific ligand to clots is specific and stable.
For B1, the Kd turned out to be 0.0141 µM.

In another data set the target is T1, Fibrinogen (Homo sapiens, UniProt P02671-2;P02675;P02679-2 P02671-2:20-644,P02675:31-491,P02679-2:27-437). Briefly: filter; moderate fibrinogen affinity. Conditions: chain copies: 2.
T1 sequence (P02671 other isoform, or with tags, fused parts or gaps, chain 1 of 3): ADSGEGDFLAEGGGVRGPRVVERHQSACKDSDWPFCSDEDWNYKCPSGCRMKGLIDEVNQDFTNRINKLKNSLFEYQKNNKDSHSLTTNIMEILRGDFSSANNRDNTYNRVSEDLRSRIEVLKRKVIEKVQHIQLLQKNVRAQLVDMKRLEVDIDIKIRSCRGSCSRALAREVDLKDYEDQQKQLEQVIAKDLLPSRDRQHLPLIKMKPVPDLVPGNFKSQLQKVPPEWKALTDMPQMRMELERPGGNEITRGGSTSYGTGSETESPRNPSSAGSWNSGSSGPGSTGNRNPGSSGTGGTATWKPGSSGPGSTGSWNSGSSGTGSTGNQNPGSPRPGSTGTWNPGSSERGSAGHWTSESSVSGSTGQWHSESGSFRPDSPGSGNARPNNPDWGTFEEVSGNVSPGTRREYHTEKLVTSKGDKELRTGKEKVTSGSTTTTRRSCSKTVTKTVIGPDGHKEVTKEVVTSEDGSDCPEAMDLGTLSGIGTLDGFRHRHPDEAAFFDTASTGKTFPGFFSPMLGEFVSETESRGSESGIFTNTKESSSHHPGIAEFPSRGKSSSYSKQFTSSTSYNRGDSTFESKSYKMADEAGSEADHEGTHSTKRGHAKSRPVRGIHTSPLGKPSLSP
T1 sequence (P02675 31-491, chain 2 of 3): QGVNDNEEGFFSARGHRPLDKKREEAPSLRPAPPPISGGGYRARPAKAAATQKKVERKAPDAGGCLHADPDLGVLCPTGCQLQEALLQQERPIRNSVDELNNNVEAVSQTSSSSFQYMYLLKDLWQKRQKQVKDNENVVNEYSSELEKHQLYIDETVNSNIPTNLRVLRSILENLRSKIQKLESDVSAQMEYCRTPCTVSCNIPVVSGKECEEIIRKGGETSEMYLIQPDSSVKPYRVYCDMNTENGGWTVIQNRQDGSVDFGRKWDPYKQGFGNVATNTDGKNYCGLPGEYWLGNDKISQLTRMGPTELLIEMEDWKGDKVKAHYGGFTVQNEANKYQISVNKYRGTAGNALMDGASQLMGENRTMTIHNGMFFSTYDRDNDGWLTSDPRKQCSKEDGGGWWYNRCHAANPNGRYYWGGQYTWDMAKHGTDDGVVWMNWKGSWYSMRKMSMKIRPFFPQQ
T1 sequence (P02679 other isoform, or with tags, fused parts or gaps, chain 3 of 3): as the sequence (P02679 other isoform, or with tags, fused parts or gaps, chain 3 of 3) above
As to B2, the binding result is recorded as “binds”.

For the molecule B3, the binding result is “binds”.

For B4, the binding result is reported as “binds”.

On to B5, for which the binding result was “binds”.

As for B6, the binding result is “binds”.

For B7, the binding result is listed as “binds”.

In a further data set the target is T1, Fibrinogen. Description: filter; low class; printed l mM, probably uM. As to conditions: chain copies: 2.
For the molecule B8, the Kd was over 1 µM.

On to B9, for which the Kd was over 1 µM.

Molecule B10 registered a Kd of over 1 µM.

In turn, B11 showed a Kd of over 1 µM.

In the case of B12, the dissociation constant (Kd) was over 1 µM.

Turning to B13, the Kd was over 1 µM.

In the case of B14, the Kd was over 1 µM.

B15 registered a Kd of over 1 µM.

Regarding B16, the Kd was over 1 µM.

Consider B17, for which the Kd was over 1 µM.

The molecule B18 gave a Kd of over 1 µM.

Turning to B19, the Kd was over 1 µM.

B20 had a Kd of over 1 µM.

The molecule B21 showed a Kd of over 1 µM.

For the molecule B22, the Kd was over 1 µM.

For B23, the Kd is over 1 µM.

In turn, B24 returned a dissociation constant Kd of over 1 µM.

Regarding B25, the Kd is over 1 µM.

The target in a further data set is T1, Fibrinogen. Description: filter; high class; printed l mM, probably uM. As to conditions: chain copies: 2.
Regarding B26, the Kd is under 1 µM.

Turning to B27, the Kd was under 1 µM.

Consider B28, for which the Kd is under 1 µM.

In the case of B29, the Kd is under 1 µM.

For B30, the Kd is under 1 µM.

Consider B31, for which the Kd was under 1 µM.

As for B32, the Kd is under 1 µM.

B33 returned a Kd of under 1 µM.

As to B34, the Kd was under 1 µM.

B35 returned a Kd of under 1 µM.

As to B36, the Kd was under 1 µM.

With B37, the Kd was under 1 µM.
